Experiments:
Assay in all cases: cell-based or functional assay
[1] = biological target: HIV-1 Env of pseudovirus 231966.c02 (clade D) (HIV-1)
[2] = biological target: HIV-1 Env of pseudovirus CNE20 (HIV-1)
[3] = biological target: HIV-1 Env of pseudovirus P0402_c2_11 (clade G) (HIV-1)
[4] = biological target: HIV-1 Env of pseudovirus 6811.v7.c18 (clade CD) (HIV-1)
[5] = biological target: HIV-1 Env of pseudovirus 6540.v4.c1 (clade AC) (HIV-1)
[6] = biological target: HIV-1 Env of pseudovirus 6480.v4.c25 (clade CD) (HIV-1)
[7] = biological target: HIV-1 Env of pseudovirus R1166.c01 (clade CRF01_AE) (HIV-1)
[8] = biological target: HIV-1 Env of pseudovirus 3103.v3.c10 (clade ACD) (HIV-1)
[9] = biological target: HIV-1 Env of pseudovirus 6041.v3.c23 (clade AC) (HIV-1)
[10] = biological target: HIV-1 Env of pseudovirus X2088_c9 (clade G) (HIV-1)
[11] = biological target: HIV-1 Env of pseudovirus 6952.v1.c20 (clade CD) (HIV-1)
[12] = biological target: HIV-1 Env of pseudovirus X1632_S2_B10 (clade G) (HIV-1)
[13] = biological target: HIV-1 Env of pseudovirus 0815.v3.c3 (clade ACD) (HIV-1)
[14] = biological target: HIV-1 Env of pseudovirus 3016.v5.c45 (clade D) (HIV-1)
[15] = biological target: HIV-1 Env of pseudovirus 9004SS_A3_4 (HIV-1)
[16] = biological target: HIV-1 Env of pseudovirus 3817.v2.c59 (clade CD) (HIV-1)
[17] = biological target: HIV-1 Env of pseudovirus HIV-001428-2.42 (HIV-1)
[18] = biological target: HIV-1 Env of pseudovirus P1981_C5_3 (clade G) (HIV-1)
[19] = biological target: HIV-1 Env of pseudovirus 3301.v1.c24 (clade AC) (HIV-1)
[20] = biological target: HIV-1 Env of pseudovirus T257-31 (HIV-1)
[21] = biological target: HIV-1 Env of pseudovirus 89-F1_2_25 (clade CD) (HIV-1)
[22] = biological target: HIV-1 Env of pseudovirus X2131_C1_B5 (clade G) (HIV-1)
[23] = biological target: HIV-1 Env of pseudovirus 231965.c01 (clade D) (HIV-1)
[24] = biological target: HIV-1 Env of pseudovirus 6545.v4.c1 (clade AC) (HIV-1)
[25] = biological target: HIV-1 Env of pseudovirus A07412M1.vrc12 (clade D) (HIV-1)
[26] = biological target: HIV-1 Env of pseudovirus 6240_08_TA5_4622 (HIV-1)

PG16 (antibody)
IC50, titer in TZM.bl cells [1]: 0.007 µg/mL
IC80, titer in TZM.bl cells [1]: 0.031 µg/mL
IC50, titer in TZM.bl cells [2]: 3.63 µg/mL
IC80, titer in TZM.bl cells [2]: 47.2 µg/mL
IC50, titer in TZM.bl cells [3]: 0.025 µg/mL
IC80, titer in TZM.bl cells [3]: 0.411 µg/mL
IC50, titer in TZM.bl cells [4]: > 50 µg/mL
IC80, titer in TZM.bl cells [4]: > 50 µg/mL
IC50, titer in TZM.bl cells [5]: 0.035 µg/mL
IC80, titer in TZM.bl cells [5]: 0.42 µg/mL
IC50, titer in TZM.bl cells [6]: > 50 µg/mL
IC80, titer in TZM.bl cells [6]: > 50 µg/mL
IC50, titer in TZM.bl cells [7]: 0.28 µg/mL
IC80, titer in TZM.bl cells [7]: 4.38 µg/mL
IC50, titer in TZM.bl cells [8]: 25.4 µg/mL
IC80, titer in TZM.bl cells [8]: > 50 µg/mL
IC50, titer in TZM.bl cells [9]: 0.048 µg/mL
IC80, titer in TZM.bl cells [9]: 0.256 µg/mL
IC50, titer in TZM.bl cells [10]: > 50 µg/mL
IC80, titer in TZM.bl cells [10]: > 50 µg/mL
IC50, titer in TZM.bl cells [11]: 21.9 µg/mL
IC80, titer in TZM.bl cells [11]: > 50 µg/mL
IC50, titer in TZM.bl cells [12]: 0.012 µg/mL
IC80, titer in TZM.bl cells [12]: 0.076 µg/mL
IC50, titer in TZM.bl cells [13]: > 50 µg/mL
IC80, titer in TZM.bl cells [13]: > 50 µg/mL
IC50, titer in TZM.bl cells [14]: > 50 µg/mL
IC80, titer in TZM.bl cells [14]: > 50 µg/mL
IC50, titer in TZM.bl cells [15]: 0.02 µg/mL
IC80, titer in TZM.bl cells [15]: 0.111 µg/mL
IC50, titer in TZM.bl cells [16]: 0.008 µg/mL
IC80, titer in TZM.bl cells [16]: 0.06 µg/mL
IC50, titer in TZM.bl cells [17]: 0.039 µg/mL
IC80, titer in TZM.bl cells [17]: 0.25 µg/mL
IC50, titer in TZM.bl cells [18]: 0.376 µg/mL
IC80, titer in TZM.bl cells [18]: > 50 µg/mL
IC50, titer in TZM.bl cells [19]: 0.02 µg/mL
IC80, titer in TZM.bl cells [19]: 0.087 µg/mL
IC50, titer in TZM.bl cells [20]: 0.007 µg/mL
IC80, titer in TZM.bl cells [20]: 0.021 µg/mL
IC50, titer in TZM.bl cells [21]: 47.6 µg/mL
IC80, titer in TZM.bl cells [21]: > 50 µg/mL
IC50, titer in TZM.bl cells [22]: 0.024 µg/mL
IC80, titer in TZM.bl cells [22]: 0.139 µg/mL
IC50, titer in TZM.bl cells [23]: 1.44 µg/mL
IC80, titer in TZM.bl cells [23]: > 50 µg/mL
IC50, titer in TZM.bl cells [24]: 0.044 µg/mL
IC80, titer in TZM.bl cells [24]: 1.56 µg/mL
IC50, titer in TZM.bl cells [25]: 0.343 µg/mL
IC80, titer in TZM.bl cells [25]: > 50 µg/mL
IC50, titer in TZM.bl cells [26]: > 50 µg/mL
IC80, titer in TZM.bl cells [26]: > 50 µg/mL
